We go through 18 molecules from patent US20250332264A1, “GhR-BINDING PEPTIDE AND COMPOSITION COMPRISING SAME” (priority 2021, published 2025).

Starred links: 1 amine or outer side, 2 acyl side, 3 side chain; linkers in the order of their positions; H or OH if unused. Positions of bridges follow the written chain, without caps; N, C: chain ends. Non-standard residues stand in square brackets, D forms with d. Groups on a side chain read outwards from the residue. *: point of attachment. A4pipaa = 4-amino-1-(carboxymethyl)piperidine-4-carboxylic acid, O=C(C1(N[*:1])CCN(CC(=O)[*:3])CC1)[*:2]; BiPh4pCO = 4-([1,1′-biphenyl]-4-yl)butanoic acid, O=C(CCCc1ccc(-c2ccccc2)cc1)*; X1 = 4‑(carboxymethyl)piperazine‑1‑carbonyl, O=C(O)CN1CCN(C(=O)*)CC1; Trp(1-CH2CO) = O=C([C@H](Cc1cn(CC(=O)[*:3])c2ccccc12)N[*:1])[*:2]; Trp(5-OMe) = COc1ccc2[nH]cc(C[C@H](N)C(=O)O)c2c1; Butanoyl(4-(4-I-phenyl)) = O=C(CCCc1ccc(I)cc1)*; Trp(5-OH) = N[C@@H](Cc1c[nH]c2ccc(O)cc12)C(=O)O; Phe(4-COOH) = N[C@@H](Cc1ccc(C(=O)O)cc1)C(=O)O; Trp(7-aza) = N[C@@H](Cc1c[nH]c2ncccc12)C(=O)O; C17 diacid = O=C(O)CCCCCCCCCCCCCCCC(=O)*; C16 diacid = O=C(O)CCCCCCCCCCCCCCC(=O)*; C15 diacid = O=C(O)CCCCCCCCCCCCCC(=O)*; C14 diacid = O=C(O)CCCCCCCCCCCCC(=O)*; Hexanoyl(6-Ph) = O=C(CCCCCc1ccccc1)*; 4Pal = N[C@@H](Cc1ccncc1)C(=O)O; NMeK = CN[C@@H](CCCCN)C(=O)O; AEEA = NCCOCCOCC(=O)O; Aib = CC(C)(N)C(=O)O

This assay addresses Recombinant human GhR-Fc protein (R&D Systems) (human) (UniProt P10912). In words: SPR, Biacore T200, single-cycle kinetics, GhR-Fc immobilised on CM5.

Chain of Recombinant human GhR-Fc protein (R&D Systems) (human) (P10912 19-264 limits assumed): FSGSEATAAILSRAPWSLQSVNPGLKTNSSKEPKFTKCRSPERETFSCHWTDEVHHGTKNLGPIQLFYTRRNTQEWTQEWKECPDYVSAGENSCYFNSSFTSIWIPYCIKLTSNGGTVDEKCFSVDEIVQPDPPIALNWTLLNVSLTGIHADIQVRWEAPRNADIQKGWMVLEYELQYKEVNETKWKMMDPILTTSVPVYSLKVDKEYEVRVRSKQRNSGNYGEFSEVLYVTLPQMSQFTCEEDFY

Turning to {CH2CO}-[Phe(4-COOH)][NMeK]([Glu-Hexanoyl(6-Ph)])VVSN[Trp(5-OMe)][Phe(4-COOH)]K[Trp(5-OH)][4‑amino‑1‑(carboxymethyl)piperidine‑4‑carboxylic acid]VC-NH2 (thioether N-13) [GhR_PD_256], the Kd was determined as 2.82 nM. On to {CH2CO}-[Phe(4-COOH)]KVVSN[Trp(1-CH2CO)][Phe(4-COOH)]K[Trp(5-OH)][Aib]VCK([AEEA-AEEA-Glu-Glu-C15 diacid])-NH2 (thioether N-13; lactam 2-7; not fully specified (residue 2)) [GhR_PD_272], for which the equilibrium dissociation constant (Kd) was 3.7 nM. To {CH2CO}-[Phe(4-COOH)]KVVSN[Trp(1-CH2CO)][Phe(4-COOH)]K[Trp(5-OH)][Aib]VCK([AEEA-AEEA-Glu-Glu-C14 diacid])-NH2 (thioether N-13; lactam 2-7; not fully specified (residue 2)) [GhR_PD_271] belongs 3.88 nM. The result for {CH2CO}-[Phe(4-COOH)]KVVSN[Trp(1-CH2CO)][Phe(4-COOH)]K[Trp(5-OH)][Aib]VCK([AEEA-AEEA-Glu-Glu-C16 diacid])-NH2 (thioether N-13; lactam 2-7; not fully specified (residue 2)) [GhR_PD_273] reads 3.61 nM.

B1: GhR_PD_204 (peptide)
peptide: {CH2CO}-[4Pal]KVVSN[Trp(7-aza)][Phe(4-COOH)]K[Trp(5-OH)][Aib]VC-NH2
modifications: thioether N-13; not fully specified (residue 2); also: albumin binder E-4IPhpCO, attachment site not given here
For B1, the Kd came out at 9.43 nM.

B2: GhR_PD_208 (peptide)
peptide: {CH2CO}-[Phe(4-COOH)]KVVSN[Trp(5-OMe)][Phe(4-COOH)]K[Trp(5-OH)][Aib]VC-NH2
modifications: thioether N-13; not fully specified (residue 2); also: albumin binder E-4IPhpCO, attachment site not given here
Regarding B2, the dissociation constant (Kd) was determined as 2.19 nM. The result for {CH2CO}-[Phe(4-COOH)]KVVSN[Trp(1-CH2CO)][Phe(4-COOH)]K[Trp(5-OH)][Aib]VCK([Glu-Glu-Butanoyl(4-(4-I-phenyl))])-NH2 (thioether N-13; lactam 2-7; not fully specified (residue 2)) [GhR_PD_217] reads 1.46 nM.

B3: GhR_PD_211 (peptide)
peptide: {CH2CO}-YKVVSN[Trp(5-OMe)][Phe(4-COOH)]K[Trp(5-OH)][Aib]VC-NH2
modifications: thioether N-13; not fully specified (residue 2); also: albumin binder E-E-4IPhpCO, attachment site not given here
Take B3: the dissociation constant Kd worked out at 3.36 nM.

With {CH2CO}-Y[MeK]([Glu-Glu-Butanoyl(4-(4-I-phenyl))])VVSN[Trp(5-OMe)][Phe(4-COOH)]K[Trp(5-OH)][A4pipaa]VC-NH2 (thioether N-13) [GhR_PD_228], the Kd stood at 4.13 nM. In the case of {CH2CO}-[Phe(4-COOH)]KVVSN[Trp(1-CH2CO)][Phe(4-COOH)]K[Trp(5-OH)][Aib]VCK([AEEA-AEEA-Glu-Glu-C17 diacid])-NH2 (thioether N-13; lactam 2-7; not fully specified (residue 2)) [GhR_PD_274], the Kd amounted to 3.33 nM. On to {CH2CO}-[Phe(4-COOH)][NMeK]([Glu-BiPh4pCO])VVSN[Trp(5-OMe)][Phe(4-COOH)]K[Trp(5-OH)][4‑amino‑1‑(carboxymethyl)piperidine‑4‑carboxylic acid]VC-NH2 (thioether N-13) [GhR_PD_255], for which the Kd was found to be 5.81 nM. As for {CH2CO}-Y[MeK]([Glu-Glu-Butanoyl(4-(4-I-phenyl))])VVSN[Trp(5-OMe)][Phe(4-COOH)]K(X1)[Trp(5-OH)][Aib]VC-NH2 (thioether N-13) [GhR_PD_227], the dissociation constant (Kd) turned out to be 7.38 nM.

B4: GhR_PD_212 (peptide)
peptide: {CH2CO}-[Phe(4-COOH)]KVVSN[Trp(5-OMe)][Phe(4-COOH)]K[Trp(5-OH)][Aib]VC-NH2
modifications: thioether N-13; not fully specified (residue 2); also: albumin binder E-E-4IPhpCO, attachment site not given here
For the molecule B4, the dissociation constant Kd amounted to 2.96 nM.

B5: GhR_PD_223 (peptide)
peptide: {CH2CO}-[Phe(4-COOH)]KVVSN[Trp(5-OMe)][Phe(4-COOH)]K(X1)[Trp(5-OH)][Aib]VC-NH2
modifications: thioether N-13; not fully specified (residue 2); also: albumin binder E-4IPhpCO, attachment site not given here
Turning to B5, the dissociation constant Kd is 5.47 nM.

B6: GhR_PD_206 (peptide)
peptide: {CH2CO}-YKVVSN[Trp(5-OMe)]YK(X1)[Trp(5-OH)][Aib]VC-NH2
modifications: thioether N-13; not fully specified (residue 2); also: albumin binder E-4IPhpCO, attachment site not given here
Regarding B6, the Kd was found to be 9.67 nM.

B7: GhR_PD_224 (peptide)
peptide: {CH2CO}-[Phe(4-COOH)]KVVSN[Trp(5-OMe)][Phe(4-COOH)]K[Trp(5-OH)][A4pipaa]VC-NH2
modifications: thioether N-13; not fully specified (residue 2); also: albumin binder E-4IPhpCO, attachment site not given here
As to B7, the Kd was 10.8 nM.

B8: GhR_PD_203 (peptide)
peptide: {CH2CO}-YKVVSN[Trp(7-aza)][Phe(4-COOH)]K[Trp(5-OH)][Aib]VC-NH2
modifications: thioether N-13; not fully specified (residue 2); also: albumin binder E-4IPhpCO, attachment site not given here
Turning to B8, the equilibrium dissociation constant (Kd) was 3.95 nM.

B9: GhR_PD_202 (peptide)
peptide: {CH2CO}-[4Pal]KVVSN[Trp(5-OMe)][Phe(4-COOH)]K[Trp(5-OH)][Aib]VC-NH2
modifications: thioether N-13; not fully specified (residue 2); also: albumin binder E-4IPhpCO, attachment site not given here
B9: the Kd is 2.77 nM.
